The text below walks through data of patent publication US20250381223A1 (UTC THERAPEUTICS SHANGHAI, published 2025).

As a reminder, the EC50 is the midpoint of the concentration-response curve.

T1: CD123-Fc recombinant protein (human, UniProt P26951 19-305)
T1 construct: construct not described; not shown: Fc part
T1 sequence (looked up): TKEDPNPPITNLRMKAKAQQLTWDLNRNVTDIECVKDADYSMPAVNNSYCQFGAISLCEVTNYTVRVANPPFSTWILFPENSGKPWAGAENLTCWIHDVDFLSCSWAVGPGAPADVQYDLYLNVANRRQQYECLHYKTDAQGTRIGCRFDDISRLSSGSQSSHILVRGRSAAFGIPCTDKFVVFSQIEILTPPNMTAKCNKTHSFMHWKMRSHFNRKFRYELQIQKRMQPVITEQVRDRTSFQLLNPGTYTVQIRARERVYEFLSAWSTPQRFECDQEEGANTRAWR

B1: 4.6 (bispecific antibody)
single chain, scFv-G4S-scFv: QVQLVQSGAEVKKPGSSVKVSCKASGGTFSSYAISWVRQAPGQGLEWMGMINPSGGTTSYAQKFQGRVTMTRDTSTSTVYMELSSLRPEDTAVYYCARGFRMDQWGQGTLVTVSSGGGGSGGGGSGGGGSQSALTQPPSASGSPGQSVTISCTGTSSDVGAYNFVSWYQQHPGNAPKLIIYDVRKRPSGIPDRFSASKSGNTASLTVSGLQADDEADYYCSSYAGNNNLVFGGGTKLTVLGGGGSQVKLQESGPGLVKPSETLSITCTVSGFSLSDYGVHWVRQSPGKGLEWLGVIWAGGGTNYNSALMSRKTISKDNSKSQVFLKMSSLTAADTAVYYCARDKGYSYYYSMDYWGQGTTVTVSSGGGGSGGGGSGGGGSDIQLTQSPSSLSVSVGDRVTISCRASESVEYYVTSLMQWYQQKPGQAPKLLIFAASNVESGVPSRFSGSGSGTNFTLTISSVQEEDFAMYFCQQSRKVPYTFGGGTKLEIK
notes: Expressed from mRNA in T cells; A signal peptide is not described; also called parent diabody 4.6
B2: 5.25 (bispecific antibody)
single chain, scFv-G4S-scFv: B1 single chain, scFv-G4S-scFv with N228R
B3: 5.12 (bispecific antibody)
single chain, scFv-G4S-scFv: B1 single chain, scFv-G4S-scFv with I34V, S188R
B4: 5.28 (bispecific antibody)
single chain, scFv-G4S-scFv: B1 single chain, scFv-G4S-scFv with V183T
B5: 5.36 (bispecific antibody)
single chain, scFv-G4S-scFv: B1 single chain, scFv-G4S-scFv with E10Q, S188I
B6: 5.17 (bispecific antibody)
single chain, scFv-G4S-scFv: B1 single chain, scFv-G4S-scFv with N228E, L229M
notes: how the two are joined there is not described; also called diabody part of M12-5.17 and 5.17-M12
B7: C31 (scFv)
scFv: QPVLTQPPSMSGTPGQRVTISCSGGNSNIGDNSVSWYQQLPGTAPKLLIYNNNQRPLGVPDRFSGSKSGTSASLAIRGLQSEDEAHYYCSSWDDSLEGAQFGGGTKVTVLGGGGSGGGGSGGGGSEVQLVESGGGLVKPGGSLRLSCAASGFTFSDYYMSWIRQAPGKGLEWVSYISSSGSTIYYADSVKGRFTISRDNAKNSLYLQMNSLRAEDTAVYYCARGHQYYDFWSGYSNWFDPWGQGTLVTVSS
notes: also called anti-CD123 scFv-C31
B8: C22 (scFv)
scFv: SYELTQPPSVSVAPGKTARITCGANNIETKSVHWYRQRPGQAPILVIYYDSDRPSGIPERFSGSTSGDTATLTISRVEAEDEADYYCQVWDSTSDHVVFGEGTKLTVLGGGGSGGGGSGGGGSEVQLVESGAEVKKPGESLKISCKGSGYSFTSYWIGWVRQMPGKGLEWMGIINPSGGSTSYAQKFQGRVTMTRDTSTSTVYMELSSLRSEDTAVYYCARVVTPYYPLTNWGQGTLVTVSS
notes: also called anti-CD123 scFv-C22
B9: 4052.12 (antibody, V domains shown)
VH: QVQLVQSGAEVKKPGSSVKVSCKASGGTFSSYAVSWVRQAPGQGLEWMGMINPSGGTTSYAQKFQGRVTMTRDTSTSTVYMELSSLRPEDTAVYYCARGFRMDQWGQGTLVTVSS
VL: QSALTQPPSASGSPGQSVTISCTGTSSDVGAYNFVSWYQQHPGNAPKLIIYDVRKRPRGIPDRFSASKSGNTASLTVSGLQADDEADYYCSSYAGNNNLVFGGGTKLTVL
B10: 4052.36 (antibody, V domains shown)
VH: B9 VH with E10Q, V34I
VL: B9 VL with R58I
B11: 4052.25 (antibody, V domains shown)
VH: B9 VH with V34I
VL: B9 VL with R58S, N98R
B12: 4052.28 (antibody, V domains shown)
VH: B9 VH with V34I
VL: B9 VL with V53T, R58S
B13: C12 (scFv)
scFv: QSVLTQPPSVSAAPGQKVTISCSGSSSNIGNNYVSWYQQLPGTAPKLLIFDDNKRPSGIPDRFSGSLSGTSASLAISGLQSEDDADYYCSAWDDSLSGYVFGTGTKLTVLGGGGSGGGGSGGGGSQVQLVQSGGGLVKPGGSLRLSCAASGFTFSSYNINWVRQAPGKGPEWVSSISSSSSYRYYADSVKGRFTISRDNAKNSLYLQMNSLRAEDTAVYYCVRDKTGGYGTAFDYWGQGTLVTVSS
notes: also called anti-CD123 scFv-C12

Substitutions are numbered along the chain they refer to.

The first test addresses T2, CD40-Fc ( for this staining reagent …, UniProt P25942).
T2 construct: soluble Fc fusion; Staining reagent, detected with PE-anti-Fc
Description: flow cytometry, T cells with 10 µg diabody mRNA only, CD40-Fc + PE-anti-Fc; E1 (no mRNA) 0.48. (In general: In flow cytometry, cells or beads pass a laser one at a time.)
For the molecule B1, the “percent of cells in the gate” value came out at 81.6%.

Regarding B2, the “percent of cells in the gate” value stood at 92.7%.

As for B3, the “percent of cells in the gate” value came out at 93.6%.

Turning to B4, the “percent of cells in the gate” value was 85.8%.

As for B5, the “percent of cells in the gate” value worked out at 88%.

Take B6: the “percent of cells in the gate” value was determined as 82.1%.

In the next test the target is T1, CD123-Fc recombinant protein. Description: flow cytometry of T cells electroporated with CAR mRNA, stained with CD123-Fc + PE-anti-hIgG-Fc; Mock 0.36. On the procedure: (§1) The CD123 CAR mRNAs obtained in Example 35 above were each introduced into T cells by electroporation according to the following procedures: T cells were collected, washed with the Opti-MEM medium, and resuspended at 1×10e⁷/mL with the Opti-MEM medium; 10 μg of RNA and 100 μL of T cells were aliquoted, mixed well, and electroporated under the following parameters (BTX machine): 500 V, 0.7 ms; the cells were then transferred to a pre-warmed medium and cultured at 37° C. The binding of CD123 CART cells to the CD123-Fc recombinant protein was detected by FACS staining. […] Empty vector (Mock) was a control T cell without CAR molecule. A549 tumor cells were electroporated with different amounts of CD123 mRNA. The electroporation procedure was the same as described above, and only the parameters were changed, with the parameters 300 V, 0.5 ms used. CD123 expression in A549 tumor cells was detected by FACS staining of isotype or anti-CD123 antibodies and A549 cells electroporated with different amounts of CD123 mRNA. […] The cytotoxicity of CD123 CART cells against tumor cells was detected in an in vitro cytotoxicity assay. Tumor cells expressing EGFP or EGFP-A549 cells electroporated with different amounts of tumor antigen were seeded at 3000 cells/100 μL/well into a flat-bottom 96-well plate; CART cells were diluted to a proper concentration and seeded to the 100 μL/well tumor cells according to different E/T ratios (e.g., 10:1, 3:1, or 1:1), and the co-culture plate was placed into the IncuCyte S3 machine and scanning parameters were set. After scanning for 3 days, the total green object integrated intensity (GCU×μm²/well) was analyzed to calculate the killing efficiency.
For B7, the “percent of cells in the CD123-Fc positive gate” value stood at 0.64%.

B8: the “percent of cells in the CD123-Fc positive gate” value worked out at 0.53%.

The next test deals with T3, recombinant human CD40-His antigen protein (human, UniProt P25942 21-193).
T3 construct: Bought protein; also called recombinant CD40-His protein; CD40 antigen; not shown: His tag
The test is described as follows: ELISA; plate coated with CD40-His 2 µg/mL; HRP-anti-hFc. On the procedure:
The binding activities of the affinity-matured antibodies for antigen CD40 were detected by ELISA. The experimental procedures were as follows: [0637] 1. 50 μL of recombinant CD40-His protein at a concentration of 2 μg/mL was added to each well of an ELISA plate, and the plate was incubated at 4° C. overnight. […] 2. The next day, the ELISA plate was washed 3 times with PBST (containing 0.05% Tween-20). [0639] 3. 250 μL of 5% skim milk powder (dissolved in PBS) was added to each well of the ELISA plate, and the plate was incubated at room temperature for 2 h. [0640] 4. The plate was washed 3 times with PBST, antibodies with different dilution ratios were added to the ELISA plate at 50 μL/well, and the plate was incubated at room temperature for 60 min. [0641] 5. The plate was washed 3 times with PBST, 50 μL of HRP-anti-hFc antibody was added to each well, and the plate was incubated at room temperature for 60 min. [0642] 6. The plate was washed 3 times with PBST, 50 μL of TMB was added to each well, and after color development at room temperature, 50 μL of 2 M HCl was added to each well to stop the reaction. The plate was read at 450 nm.
In general terms: ELISA stands for enzyme-linked immunosorbent assay.
With B9, the EC50 was 0.124 µg/mL.

With B10, the EC50 turned out to be 0.134 µg/mL.

With B11, the half-maximal effective concentration (EC50) is 0.111 µg/mL.

Regarding B12, the half-maximal effective concentration (EC50) came to 0.116 µg/mL.

A further test has as its target T1, CD123-Fc recombinant protein. Description: flow cytometry of T cells electroporated with CAR mRNA, stained with CD123-Fc + PE-anti-hIgG-Fc; Mock 1.68. On the procedure:
as §1
On to B13, for which the “percent of cells in the CD123-Fc positive gate” value is 1.37%.

A further test has the same target. The test is described as follows: flow cytometry of T cells electroporated with CAR mRNA, stained with CD123-Fc + PE-anti-hIgG-Fc. On the procedure: as §1
Consider B7, for which the binding result is reported as “no binding”.

Consider B13, for which the binding result is given as “no binding”.

In the case of B8, the binding result was “no binding”.

Another test has as its target T2, CD40-Fc. The test is described as follows: flow cytometry, T cells with diabody mRNA and M12 CAR mRNA, CD40-Fc + PE-anti-Fc; E1 0.48, E2 (M12 only) 0.77.
Consider B1, for which the “percent of cells in the gate” value is 83.9%.

For B2, the “percent of cells in the gate” value stood at 92.9%.

Consider B3, for which the “percent of cells in the gate” value came out at 87.9%.

On to B4, for which the “percent of cells in the gate” value was 87.4%.

Regarding B5, the “percent of cells in the gate” value is 94.2%.

Consider B6, for which the “percent of cells in the gate” value is 88.1%.

Another test addresses T4, Meso-biotin.
T4 construct: Meso-Fc and PE-anti-Fc for this staining
Description: flow cytometry, T cells with diabody mRNA only, Meso-biotin + PE-Streptavidin; E1 0.29.
For the molecule B1, the “percent of cells in the gate” value came to 0.72%.

B2: the “percent of cells in the gate” value came out at 2.36%.

B3: the “percent of cells in the gate” value was 1.11%.

B4: the “percent of cells in the gate” value was found to be 0.94%.

Turning to B5, the “percent of cells in the gate” value came to 1.14%.

In the case of B6, the “percent of cells in the gate” value amounted to 1.12%.
